Experimental data as given in FireProtDB (doi:10.1021/tx3002115).

B1: DNA polymerase IV, Q97W02 (parent)
chain: MIVLFVDFDYFYAQVEEVLNPSLKGKPVVVCVFSGRFEDSGAVATANYEARKFGVKAGIPIVEAKKILPNAVYLPMRKEVYQQVSSRIMNLLREYSEKIEIASIDEAYLDISDKVRDYREAYNLGLEIKNKILEKEKITVTVGISKNKVFAKIAADMAKPNGIKVIDDEEVKRLIRELDIADVPGIGNITAEKLKKLGINKLVDTLSIEFDKLKGMIGEAKAKYLISLARDEYNEPIRTRVRKSIGRIVTMKRNSRNLEEIKPYLFRAIEESYYKLDKRIPKAIHVVAVTEDLDIVSRGRTFPHGISKETAYSESVKLLQKILEEDERKIRRIGVRFSKFIEAIGLDKFFDT

Variants of: B1
Conditions: Saccharolobus solfataricus (strain ATCC 35092 / DSM 1617 / JCM 11322 / P2); pH 7.5; Thermal; CD; Na3PO4; NaCl MgCl2 50000 5000; structure 2RDI; whole UniProt chain shown

Row | Variant | Tm [°C] | unfolding enthalpy (calorimetric) [kcal/mol]
1 | MIVLFVDFDYFYAQVEEVLNPSLKGKPVVVCVFSGRFEDSGAVATANYEARKFGVKAGIPIVEAKKILPNAVYLPMRKEVYQQVSSRIMNLLREYSEKIAIASIDEAYLDISDKVRDYREAYNLGLEIKNKILEKEKITVTVGISKNAVFAKIAADMAKPNGIKVIDDEEVKRLIRELDIADVPGIGNITAEKLKKLGINKLVDTLSIEFDKLKGMIGEAKAKYLISLARDEYNAPIRTAVRKSIGRIVTMKRNSRNLEEIKPYLFRAIEESYYKLDKRIPKAIHVVAVTEDLDIVSRGRTFPHGISKETAYSESVKLLQKILEEDERKIRRIGVRFSKFIEAIGLDKFFDT [E100A K148A E235A R240A] | 90 | 163
2 | MIVLFVDFDYFYAQVEEVLNPSLKGKPVVVCVFSGRFEDSGAVATANYEARKFGVKAGIPIVEAKKILPNAVYLPMRKEVYQQVSSRIMNLLREYSEKIAIASIDEAYLDISDKVRDYREAYNLGLEIKNKILEKEKITVTVGISKNAVFAKIAADMAKPNGIKVIDDEEVKRLIRELDIADVPGIGNITAEKLKKLGINKLVDTLSIEFDKLKGMIGEAKAKYLISLARDEYNEPIRTRVRKSIGRIVTMKRNSRNLEEIKPYLFRAIEESYYKLDKRIPKAIHVVAVTEDLDIVSRGRTFPHGISKETAYSESVKLLQKILEEDERKIRRIGVRFSKFIEAIGLDKFFDT [E100A K148A] | 89.4 | 135
3 | MIVLFVDFDYFYAQVEEVLNPSLKGKPVVVCVFSGRFEDSGAVATANYEARKFGVKAGIPIVEAKKILPNAVYLPMRKEVYQQVSSRIMNLLREYSEKIEIASIDEAYLDISDKVRDYREAYNLGLEIKNKILEKEKITVTVGISKNKVFAKIAADMAKPNGIKVIDDEEVKRLIRELDIADVPGIGNITAEKLKKLGINKLVDTLSIEFDKLKGMIGEAKAKYLISLARDEYNEPIRTAVRKSIGRIVTMKRNSRNLEEIKPYLFRAIEESYYKLDKRIPKAIHVVAVTEDLDIVSRGRTFPHGISKETAYSESVKLLQKILEEDERKIRRIGVRFSKFIEAIGLDKFFDT [R240A] | 96.5 | 93
4 | MIVLFVDFDYFYAQVEEVLNPSLKGKPVVVCVFSGRFEDSGAVATANYEARKFGVKAGIPIVEAKKILPNAVYLPMRKEVYQQVSSRIMNLLREYSEKIAIASIDEAYLDISDKVRDYREAYNLGLEIKNKILEKEKITVTVGISKNKVFAKIAADMAKPNGIKVIDDEEVKRLIRELDIADVPGIGNITAEKLKKLGINKLVDTLSIEFDKLKGMIGEAKAKYLISLARDEYNAPIRTAVRKSIGRIVTMKRNSRNLEEIKPYLFRAIEESYYKLDKRIPKAIHVVAVTEDLDIVSRGRTFPHGISKETAYSESVKLLQKILEEDERKIRRIGVRFSKFIEAIGLDKFFDT [E100A E235A R240A] | 88.3 | 193
5 | MIVLFVDFDYFYAQVEEVLNPSLKGKPVVVCVFSGRFEDSGAVATANYEARKFGVKAGIPIVEAKKILPNAVYLPMRKEVYQQVSSRIMNLLREYSEKIEIASIDEAYLDISDKVRDYREAYNLGLEIKNKILEKEKITVTVGISKNAVFAKIAADMAKPNGIKVIDDEEVKRLIRELDIADVPGIGNITAEKLKKLGINKLVDTLSIEFDKLKGMIGEAKAKYLISLARDEYNAPIRTAVRKSIGRIVTMKRNSRNLEEIKPYLFRAIEESYYKLDKRIPKAIHVVAVTEDLDIVSRGRTFPHGISKETAYSESVKLLQKILEEDERKIRRIGVRFSKFIEAIGLDKFFDT [K148A E235A R240A] | 90.3 | 172
6 | MIVLFVDFDYFYAQVEEVLNPSLKGKPVVVCVFSGRFEDSGAVATANYEARKFGVKAGIPIVEAKKILPNAVYLPMRKEVYQQVSSRIMNLLREYSEKIEIASIDEAYLDISDKVRDYREAYNLGLEIKNKILEKEKITVTVGISKNKVFAKIAADMAKPNGIKVIDDEEVKRLIRELDIADVPGIGNITAEKLKKLGINKLVDTLSIEFDKLKGMIGEAKAKYLISLARDEYNAPIRTAVRKSIGRIVTMKRNSRNLEEIKPYLFRAIEESYYKLDKRIPKAIHVVAVTEDLDIVSRGRTFPHGISKETAYSESVKLLQKILEEDERKIRRIGVRFSKFIEAIGLDKFFDT [E235A R240A] | 90.3 | 125
